From US20250276077A1, “EPHA2 ANTIBODIES” (Immunome, Inc., priority 2022, published 2025) come the findings set out here.

In this test the test system is A549 cells. The experiment in a line: ADCC (KILR target cells, NK92 CD16 chimera effector cells). The format is cell-based, human. As to conditions: A549 tumor cells; for ADCC - dAct rel. parent, Trial 1: Trial 1, relative to parent antibody; for ADCC - dAct rel. parent, Trial 2: Trial 2, relative to parent antibody. How it is done:
To detect Antibody-dependent cellular cytotoxicity (ADCC), KILR™-transfected target cells were opsonized with different concentrations of the antibody at room temperature for 20 minutes. Following, NK92 cells carrying a mouse extracellular-human intracellular CD16 chimera were added at a 5:1 ratio of effector to target cells. After a 4 h co-culture at 37° C. and 5% CO2, pre-mixed KILR™ detection reagent was added to each well at equal volume and allowed to incubate for 30 min at room temperature in the dark before reading luminescence on a pate reader. Cytotoxicity was calculated after background (spontaneous release) subtraction and expressed as percent of a maximum lysis control.

B1: AB-010681: VH SEQ ID NO: 634, VL SEQ ID NO: 699; L29SY; L92SH relative to AB-010361 (antibody, V domains shown)
VH: QVQLQQWGAGLLKPSETLSLTCAVYGGSFSGYYWSWIRQPPGKGLEWIGEINHRGSINYNNYNPSLKSRVTISVDTSKNQFSLKLSSVTAADTAVYYCAKPLRPHCTNGVCYSGDAFDIWGQGTMVTVAS
VL: SYVLTQPPSVSVAPGQTARITCGGNNIGYKNVHWYQQKPGQAPVLVVYDDSDRPSGIPEQFSGSNSGNTATLTISRVEAGDEADYYCQVWDHSSDHVVFGGGTKLTVL
A word on the EC50: it is the concentration giving half of the maximal effect. Read a high EC50 as lower potency in that assay. B1: the EC50 was about 8 pM; the “ADCC - dAct rel. parent, Trial 1” value is 152.1%; the “ADCC - dAct rel. parent, Trial 2” value was determined as 104.6%.

B2: AB-010687: VH SEQ ID NO: 640, VL SEQ ID NO: 705; L93SE relative to AB-010361 (antibody, V domains shown)
VH: QVQLQQWGAGLLKPSETLSLTCAVYGGSFSGYYWSWIRQPPGKGLEWIGEINHRGSINYNNYNPSLKSRVTISVDTSKNQFSLKLSSVTAADTAVYYCAKPLRPHCTNGVCYSGDAFDIWGQGTMVTVAS
VL: SYVLTQPPSVSVAPGQTARITCGGNNIGSKNVHWYQQKPGQAPVLVVYDDSDRPSGIPEQFSGSNSGNTATLTISRVEAGDEADYYCQVWDSESDHVVFGGGTKLTVL
Regarding B2, the “ADCC - dAct rel. parent, Trial 1” value is listed as 166.8%.

B3: AB-010669: VH SEQ ID NO: 622, VL SEQ ID NO: 687; L30KM; L92SH relative to AB-010357 (antibody, V domains shown)
VH: QVQLQQWGAGLLKPSETLSLTCAVYGGSFSDYYWSWIRQPPGKGLEWIGEINHRGSINYNNYNPSLKSRVTISVDTSKNQFSLKLSSVTAADTAVYYCAKPLRPHCTNGVCYSGDAFDIWGQGTMVTVAS
VL: SYVLTQPPSVSVAPGQTARITCGGNNIGSMNVHWYQQKPGQAPVLVVYDDSDRPSGIPEQFSGSNSGNTATLTISRVEAGDEADYYCQVWDHSSDHVVFGGGTKLTVL
On to B3, for which the “ADCC - dAct rel. parent, Trial 1” value is reported as 177.7%.

B4: AB-010683: VH SEQ ID NO: 636, VL SEQ ID NO: 701; L30KM; L92SH relative to AB-010361 (antibody, V domains shown)
VH: QVQLQQWGAGLLKPSETLSLTCAVYGGSFSGYYWSWIRQPPGKGLEWIGEINHRGSINYNNYNPSLKSRVTISVDTSKNQFSLKLSSVTAADTAVYYCAKPLRPHCTNGVCYSGDAFDIWGQGTMVTVAS
VL: SYVLTQPPSVSVAPGQTARITCGGNNIGSMNVHWYQQKPGQAPVLVVYDDSDRPSGIPEQFSGSNSGNTATLTISRVEAGDEADYYCQVWDHSSDHVVFGGGTKLTVL
With B4, the “ADCC - dAct rel. parent, Trial 1” value is recorded as 174.8% and the “ADCC - dAct rel. parent, Trial 2” value is on record as 100.0%.

B5: AB-010684: VH SEQ ID NO: 637, VL SEQ ID NO: 702; H107TI; L92SH relative to AB-010361 (antibody, V domains shown)
VH: QVQLQQWGAGLLKPSETLSLTCAVYGGSFSGYYWSWIRQPPGKGLEWIGEINHRGSINYNNYNPSLKSRVTISVDTSKNQFSLKLSSVTAADTAVYYCAKPLRPHCINGVCYSGDAFDIWGQGTMVTVAS
VL: SYVLTQPPSVSVAPGQTARITCGGNNIGSKNVHWYQQKPGQAPVLVVYDDSDRPSGIPEQFSGSNSGNTATLTISRVEAGDEADYYCQVWDHSSDHVVFGGGTKLTVL
As to B5, the “ADCC - dAct rel. parent, Trial 1” value was 166.6% and the “ADCC - dAct rel. parent, Trial 2” value was 115.4%.

B6: AB-010688: VH SEQ ID NO: 641, VL SEQ ID NO: 706; L29SY; L93SE relative to AB-010361 (antibody, V domains shown)
VH: QVQLQQWGAGLLKPSETLSLTCAVYGGSFSGYYWSWIRQPPGKGLEWIGEINHRGSINYNNYNPSLKSRVTISVDTSKNQFSLKLSSVTAADTAVYYCAKPLRPHCTNGVCYSGDAFDIWGQGTMVTVAS
VL: SYVLTQPPSVSVAPGQTARITCGGNNIGYKNVHWYQQKPGQAPVLVVYDDSDRPSGIPEQFSGSNSGNTATLTISRVEAGDEADYYCQVWDSESDHVVFGGGTKLTVL
Take B6: the “ADCC - dAct rel. parent, Trial 1” value is given as 129.9% and the “ADCC - dAct rel. parent, Trial 2” value turned out to be 108.0%.

B7: AB-010672: VH SEQ ID NO: 625, VL SEQ ID NO: 690; L93SR relative to AB-010357 (antibody, V domains shown)
VH: QVQLQQWGAGLLKPSETLSLTCAVYGGSFSDYYWSWIRQPPGKGLEWIGEINHRGSINYNNYNPSLKSRVTISVDTSKNQFSLKLSSVTAADTAVYYCAKPLRPHCTNGVCYSGDAFDIWGQGTMVTVAS
VL: SYVLTQPPSVSVAPGQTARITCGGNNIGSKNVHWYQQKPGQAPVLVVYDDSDRPSGIPEQFSGSNSGNTATLTISRVEAGDEADYYCQVWDSRSDHVVFGGGTKLTVL
With B7, the “ADCC - dAct rel. parent, Trial 1” value is reported as 162.9%.

B8: AB-010678: VH SEQ ID NO: 631, VL SEQ ID NO: 696; L23GR; L92SH relative to AB-010361 (antibody, V domains shown)
VH: QVQLQQWGAGLLKPSETLSLTCAVYGGSFSGYYWSWIRQPPGKGLEWIGEINHRGSINYNNYNPSLKSRVTISVDTSKNQFSLKLSSVTAADTAVYYCAKPLRPHCTNGVCYSGDAFDIWGQGTMVTVAS
VL: SYVLTQPPSVSVAPGQTARITCRGNNIGSKNVHWYQQKPGQAPVLVVYDDSDRPSGIPEQFSGSNSGNTATLTISRVEAGDEADYYCQVWDHSSDHVVFGGGTKLTVL
As for B8, the “ADCC - dAct rel. parent, Trial 1” value stood at 154.2% and the “ADCC - dAct rel. parent, Trial 2” value worked out at 93.9%.

B9: AB-010670: VH SEQ ID NO: 623, VL SEQ ID NO: 688; H107TI; L92SH relative to AB-010357 (antibody, V domains shown)
VH: QVQLQQWGAGLLKPSETLSLTCAVYGGSFSDYYWSWIRQPPGKGLEWIGEINHRGSINYNNYNPSLKSRVTISVDTSKNQFSLKLSSVTAADTAVYYCAKPLRPHCINGVCYSGDAFDIWGQGTMVTVAS
VL: SYVLTQPPSVSVAPGQTARITCGGNNIGSKNVHWYQQKPGQAPVLVVYDDSDRPSGIPEQFSGSNSGNTATLTISRVEAGDEADYYCQVWDHSSDHVVFGGGTKLTVL
As for B9, the “ADCC - dAct rel. parent, Trial 1” value is 178.2%.

B10: AB-010674: VH SEQ ID NO: 627, VL SEQ ID NO: 692; L29SY; L93SE relative to AB-010357 (antibody, V domains shown)
VH: QVQLQQWGAGLLKPSETLSLTCAVYGGSFSDYYWSWIRQPPGKGLEWIGEINHRGSINYNNYNPSLKSRVTISVDTSKNQFSLKLSSVTAADTAVYYCAKPLRPHCTNGVCYSGDAFDIWGQGTMVTVAS
VL: SYVLTQPPSVSVAPGQTARITCGGNNIGYKNVHWYQQKPGQAPVLVVYDDSDRPSGIPEQFSGSNSGNTATLTISRVEAGDEADYYCQVWDSESDHVVFGGGTKLTVL
Consider B10, for which the “ADCC - dAct rel. parent, Trial 1” value came out at 171.2% and the “ADCC - dAct rel. parent, Trial 2” value is on record as 97.2%.

B11: AB-010673: VH SEQ ID NO: 626, VL SEQ ID NO: 691; L93SE relative to AB-010357 (antibody, V domains shown)
VH: QVQLQQWGAGLLKPSETLSLTCAVYGGSFSDYYWSWIRQPPGKGLEWIGEINHRGSINYNNYNPSLKSRVTISVDTSKNQFSLKLSSVTAADTAVYYCAKPLRPHCTNGVCYSGDAFDIWGQGTMVTVAS
VL: SYVLTQPPSVSVAPGQTARITCGGNNIGSKNVHWYQQKPGQAPVLVVYDDSDRPSGIPEQFSGSNSGNTATLTISRVEAGDEADYYCQVWDSESDHVVFGGGTKLTVL
Take B11: the “ADCC - dAct rel. parent, Trial 1” value is on record as 166.4%.

B12: AB-010686: VH SEQ ID NO: 639, VL SEQ ID NO: 704; L93SR relative to AB-010361 (antibody, V domains shown)
VH: QVQLQQWGAGLLKPSETLSLTCAVYGGSFSGYYWSWIRQPPGKGLEWIGEINHRGSINYNNYNPSLKSRVTISVDTSKNQFSLKLSSVTAADTAVYYCAKPLRPHCTNGVCYSGDAFDIWGQGTMVTVAS
VL: SYVLTQPPSVSVAPGQTARITCGGNNIGSKNVHWYQQKPGQAPVLVVYDDSDRPSGIPEQFSGSNSGNTATLTISRVEAGDEADYYCQVWDSRSDHVVFGGGTKLTVL
For the molecule B12, the “ADCC - dAct rel. parent, Trial 1” value is recorded as 132.3%.

B13: AB-010664: VH SEQ ID NO: 617, VL SEQ ID NO: 682; L23GR; L92SH relative to AB-010357 (antibody, V domains shown)
VH: QVQLQQWGAGLLKPSETLSLTCAVYGGSFSDYYWSWIRQPPGKGLEWIGEINHRGSINYNNYNPSLKSRVTISVDTSKNQFSLKLSSVTAADTAVYYCAKPLRPHCTNGVCYSGDAFDIWGQGTMVTVAS
VL: SYVLTQPPSVSVAPGQTARITCRGNNIGSKNVHWYQQKPGQAPVLVVYDDSDRPSGIPEQFSGSNSGNTATLTISRVEAGDEADYYCQVWDHSSDHVVFGGGTKLTVL
Turning to B13, the “ADCC - dAct rel. parent, Trial 1” value is given as 167.7%.

B14: AB-010667: VH SEQ ID NO: 620, VL SEQ ID NO: 685; L29SY; L92SH relative to AB-010357 (antibody, V domains shown)
VH: QVQLQQWGAGLLKPSETLSLTCAVYGGSFSDYYWSWIRQPPGKGLEWIGEINHRGSINYNNYNPSLKSRVTISVDTSKNQFSLKLSSVTAADTAVYYCAKPLRPHCTNGVCYSGDAFDIWGQGTMVTVAS
VL: SYVLTQPPSVSVAPGQTARITCGGNNIGYKNVHWYQQKPGQAPVLVVYDDSDRPSGIPEQFSGSNSGNTATLTISRVEAGDEADYYCQVWDHSSDHVVFGGGTKLTVL
B14: the “ADCC - dAct rel. parent, Trial 1” value is 154.8% and the “ADCC - dAct rel. parent, Trial 2” value is on record as 108.9%.
